Data: PMC9016351

Tests used:
GB‐DRP1 = assay: ddFP assay in cells (confocal microscopy); conditions: U2OS BAX/BAK DKO cells, 3 h after apoptosis induction; n = 3 independent experiments (n = 100 cells each); parent: est. 21; read off a plot
RA‐BAX = RA‐BAX (UniProt Q07812); assay: ddFP assay in cells (confocal microscopy); conditions: U2OS BAX/BAK DKO cells, 3 h after apoptosis induction; n = 3 independent experiments (n = 100 cells each); parent: est. 28; read off a plot
Chain of UniProt Q07812 (Q07812 whole entry): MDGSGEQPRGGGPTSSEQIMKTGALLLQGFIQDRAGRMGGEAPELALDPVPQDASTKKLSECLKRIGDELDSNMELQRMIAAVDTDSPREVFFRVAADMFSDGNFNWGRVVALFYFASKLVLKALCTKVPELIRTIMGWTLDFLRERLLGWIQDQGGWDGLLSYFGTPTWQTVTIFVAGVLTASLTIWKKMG

Substance | response (GB‐DRP1) [%] | response (RA‐BAX) [%]
RA‐BAX (from UniProt Q07812) G67R | 15 | –
RA‐BAX (from UniProt Q07812) L59C | 38 | –
RA‐BAX (from UniProt Q07812) R134E | 19 | –
GB‐DRP1 K642E | – | 33
RA‐BAX (from UniProt Q07812) S184V | 7.5 | –
GB‐DRP1 R376E | – | 34
RA‐BAX (from UniProt Q07812) G40E | 15 | –
RA‐BAX (from UniProt Q07812) K21E; R134E | 26 | –
GB‐DRP1 K557R; K560R; K569R; K571R | – | 35
RA‐BAX (from UniProt Q07812) K58E | 21 | –
GB‐DRP1 D221A | – | 27
GB‐DRP1 K38A | – | 24
RA‐BAX (from UniProt Q07812) K57E | 22 | –
RA‐BAX (from UniProt Q07812) K21E | 31 | –
RA‐BAX (from UniProt Q07812) G67R; S184V | 3 | –
RA‐BAX (from UniProt Q07812) L63E | 0 | –
